# B1: V488E KAP1: V488E mutant of KAP1, impaired in binding to HP1 (protein)
# chain: MAASAAAASAAAASAASGSPGPGEGSAGGEKRSTAPSAAASASASAAASSPAGGGAEALELLEHCGVCRERLRPEREPRLLPCLHSACSACLGPAAPAAANSSGDGGAAGDGTVVDCPVCKQQCFSKDIVENYFMRDSGSKAATDAQDANQCCTSCEDNAPATSYCVECSEPLCETCVEAHQRVKYTKDHTVRSTGPAKSRDGERTVYCNVHKHEPLVLFCESCDTLTCRDCQLNAHKDHQYQFLEDAVRNQRKLLASLVKRLGDKHATLQKSTKEVRSSIRQVSDVQKRVQVDVKMAILQIMKELNKRGRVLVNDAQKVTEGQQERLERQHWTMTKIQKHQEHILRFASWALESDNNTALLLSKKLIYFQLHRALKMIVDPVEPHGEMKFQWDLNAWTKSAEAFGKIVAERPGTNSTGPAPMAPPRAPGPLSKQGSGSSQPMEVQEGYGFGSGDDPYSSAEPHVSGVKRSRSGEGEVSGLMRKVPRESLERLDLDLTADSQPPVFKVFPGSTTEDYNLIVIERGAAAAATGQPGTAPAGTPGAPPLAGMAIVKEEETEAAIGAPPTATEGPETKPVLMALAEGPGAEGPRLASPSGSTSSGLEVVAPEGTSAPGGGPGTLDDSATICRVCQKPGDLVMCNQCEFCFHLDCHLPALQDVPGEEWSCSLCHVLPDLKEEDGSLSLDGADSTGVVAKLSPANQRKCERVLLALFCHEPCRPLHQLATDSTFSLDQPGGTLDLTLIRARLQEKLSPPYSSPQEFAQDVGRMFKQFNKLTEDKADVQSIIGLQRFFETRMNEAFGDTKFSAVLVEPPPMSLPGAGLSSQELSGGPGDGP
# modifications: left off: Strep, end not stated, kept
# Legend:
# FLAG-tagged HP1α = experiment: pull-down with Strep-tagged KAP1, Western blot; assay type: binding; details: Strep-tagged full-length KAP1 mutant, HCT116 cells; 3 biological replicates
# Protocol: For all AP experiments, HCT116 cells were seeded in 10 cm plates (~4 million cells per dish) and transfected with Strep- and Flag-tagged plasmids one-day after seeding cells. Two days post-transfection, cells were collected in PBS and lysed with passive lysis buffer (PLB: 50 mM Tris-HCl pH 7.5, 150 mM NaCl, 1 mM DTT, 1.0% NP-40, 1.5 mM MgCl2, 5% v/v glycerol, and 1X complete, Mini EDTA-free, EASYpack Protease Inhibitor [Roche, Cat# 4693159001]) by resuspending cells in PLB, vortexing briefly, nutating for 15 min at 4 °C, and centrifuging the lysate (10,000 × g, 10 min, 4 °C). Strep-Tactin superflow resin (IBA Life Sciences, Cat# 2-1208-010), was equilibrated by centrifuging beads (2000 RPM, 2 min, 4 °C), removing storage buffer, and washing three times with PLB with nutation for 5 min at 4 °C. Beads were volumed back to their original volume, and 40 µL beads were used per AP and bound for 2 h. Beads were then washed with AP Wash Buffer (50 mM Tris-HCl pH 7.5, 250 mM NaCl, 1 mM DTT, 0.2% NP-40, 1.5 mM MgCl2, and 5% v/v glycerol), and eluted with Strep-tag Elution Buffer containing D-Desthiobiotin (IBA Life Sciences, Cat# 2-1000-025). […]
# Tryptophan fluorescence data are presented as average of three independent measurements ±SD. […]
# [1] = test system: endogenous retroelements in KAP1 cKO ESCs; experiment: ATAC-seq chromatin accessibility; assay type: cell-based, mouse; details: exogenous expression in KAP1 cKO ESCs, 2 μg/mL doxycycline, 2 μM 4-OHT 48 h
# Protocol: ESCs were maintained under standard conditions on gelatin-coated plates at 37 °C at 5% CO2 in Knockout DMEM (Thermo Fisher) supplemented with NEAA, GlutaMAX, penicillin/streptomycin (Thermo Fisher), 15% ESC-screened fetal bovine serum (Hyclone), 0.1 mM 2-mercaptoethanol (Fisher), and leukemia-inhibitory factor (LIF). Generation of KAP1 cKO ESCs has been described previously. The piggybac transposon system was used to stably integrate transgenic Flag-tagged WT or V488E mutant KAP1 under control of an rtTA promoter (Systems Biosciences, PB-TRE-EGFP-EF1a-rtTA) into the inducible KAP1 cKO ESCs. Exogenous expression of WT or V488E mutant KAP1 was induced with 2 μg/mL doxycycline for 48 h and maintained in doxycycline prior to endogenous KAP1 deletion. KAP1 deletion was induced with 2 μM 4-OHT (Sigma) treatment for 48 h. […]
# The modified ATAC-sequencing protocol Omni-ATAC was performed. […] Number of further PCR cycles required was determined using KAPA Library Quantification Kit (KK4854). […]
# Quality of datasets was assessed using the FastQC tool. Raw reads were adapter and quality trimmed using Trimgalore. Trimmed reads were aligned to the mouse reference genome (mm10) with Bowtie2. Multimapping reads were randomly assigned. Optical duplicate reads were filtered using Picard (https://broadinstitute.github.io/picard/). Reads which mapped to the mitochondrial genome were removed with Samtools. […]
molecule,measurement,setting,value
B1,pull-down of FLAG-tagged HP1α,FLAG-tagged HP1α,eliminated binding of exogenously expressed FLAG-tagged HP1α
same,"restoration of closed chromatin at IAPEz, MERVK10C and ETn",[1],could not restore a closed chromatin state to the same extent observed with expression of WT KAP1

# Source: paper PMC12126490, “The HP1 box of KAP1 organizes HP1α for silencing of endogenous retroviral elements in embryonic stem cells” (Nature Communications, 2025)
